Data as given in article PMC10950212, “Structure and antigenicity of the divergent human astrovirus VA1 capsid spike” (PLOS Pathogens, 2024).

Molecular target: the molecule itself
Experiment: SEC; Superdex 200 increase 10/300; retention volume compared with Bio-Rad gel filtration standards; 20 mM Tris-HCl pH 8.0, 150 mM NaCl

B1: gastrointestinal HAstV-VA1 capsid spike (HAstV-VA1^gastro spike), residues 408-684 (domain or fragment)
chain: PIPPTGVPVGDFYVCGRMTTLHMGGQSGIQATTLVNGMIYRTDHPEPSTSPVSNWEFTVLENNTIVGAGMGCVWFQKSEALVWTLDGQKLSGWNTLDGVGTTQLTVAWRQHNRTIYGWANVVAWNSEEWHTNAEQPHQPILRLTYWLVKINVLSEPEDFDVVQKSPLAYLEDYTTAQSKSAIQKLNFQTFQKPEGGGTLRAQYSTTPRQGDFAVIWQIGRHNFDMSTGKGTPVESLSDYVMPQQKDAHIGMWYRALTSVGPRSDVLTLHFHLPTVEK
notes: Capsid precursor protein (VP86, ORF2) of human astrovirus VA1, gastrointestinal strain, NCBI YP_003090288.1, spike structural domain residues 408-684; C-terminal thrombin site and 10-histidine tag; tag removed with thrombin before SEC and crystallisation; Homodimer; also called VA1 Spike^Gastro; HAstV-VA1 spike; source: E. coli T7 Express, purified (TALON, thrombin digestion, SEC on Superdex 200 …)
stoichiometry N: 2
